Publication PMC2656774 (Cell, 2009)

Target: human eIF4A1, full-length (human, UniProt P60842 1-406)
Experiment: SPR

Sequence of human eIF4A1, full-length (P60842 whole entry): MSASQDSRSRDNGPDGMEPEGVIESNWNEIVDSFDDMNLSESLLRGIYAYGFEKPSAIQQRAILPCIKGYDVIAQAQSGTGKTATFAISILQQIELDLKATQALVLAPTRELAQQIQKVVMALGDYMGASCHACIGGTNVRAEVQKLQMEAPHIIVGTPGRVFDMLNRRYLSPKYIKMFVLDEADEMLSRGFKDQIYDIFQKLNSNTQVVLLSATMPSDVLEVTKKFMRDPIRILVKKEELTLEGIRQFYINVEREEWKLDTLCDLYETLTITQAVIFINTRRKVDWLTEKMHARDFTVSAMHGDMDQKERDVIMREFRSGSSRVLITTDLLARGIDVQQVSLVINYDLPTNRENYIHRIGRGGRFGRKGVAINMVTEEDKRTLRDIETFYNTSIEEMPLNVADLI

binding result: binds
B1: human eIF4H isoform 2 (natural protein)
chain: not shown
